Results from patent publication US20210246451, “APTAMER FOR ADAMTS5 AND USE FOR APTAMER FOR ADAMTS5” (RIBOMIC INC., published 2021).

Experiments:
ADAMTS5 [1] = biological target: T1, ADAMTS5 (UniProt Q9UNA0 Q9UNA0:262-622); experiment: inhibition; 10 nM aptamer; details: tags: R&D Systems
T1 sequence: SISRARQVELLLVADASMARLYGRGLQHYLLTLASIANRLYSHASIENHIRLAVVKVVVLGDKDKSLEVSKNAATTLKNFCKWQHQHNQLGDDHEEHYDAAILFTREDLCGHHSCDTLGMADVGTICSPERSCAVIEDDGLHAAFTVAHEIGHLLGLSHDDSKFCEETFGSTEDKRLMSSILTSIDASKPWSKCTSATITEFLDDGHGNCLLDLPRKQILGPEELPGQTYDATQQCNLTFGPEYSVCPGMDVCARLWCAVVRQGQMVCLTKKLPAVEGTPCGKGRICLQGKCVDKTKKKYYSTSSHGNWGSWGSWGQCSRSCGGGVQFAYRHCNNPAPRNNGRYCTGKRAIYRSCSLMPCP
Description: (§1) Whether an aptamer having the nucleotide sequence shown in SEQ ID NO: 1 inhibits the enzyme activity of ADAMTS5 was evaluated by the following method. As a substrate of ADAMTS5, the G1-IGD-G2 domain of aggrecan (manufactured by R&D systems) was used. ADAMTS5 specifically cleaves in between the 392nd glutamic acid and the 393rd alanine in the G1-IGD-G2 domain and produces two fragments. These fragments have faster electrophoretic mobility than uncleaved G1-IGD-G2. Thus, the enzyme activity of ADAMTS5 can be measured by quantifying the band intensity of G1-IGD-G2 by SDS-PAGE electrophoresis. The assay was performed in a solution A buffer with a reaction mixture volume of 10 μL. First, a mixture (10 μL) of a nucleic acid and ADAMTS5 was prepared and incubated at 25° C. for 15 min. To a substrate solution (5 μL) diluted with solution A was added a mixture (5 μL) of the nucleic acid and ADAMTS5 to start the enzyme reaction. The final concentration of ADAMTS5 in the reaction solution was 5 nM, and the final substrate concentration was 50 μg/mL. The reaction solution was incubated at 37° C. for 2 hr, 2 μL of solution D was added, and the mixture was heated at 95° C. for 2 min to stop the enzyme reaction of ADAMTS5. Solution D contains 0.25 M tris (pH 6.8), 10% SDS, 50% glycerol, 0.25% bromo phenolblue, and 20% 2-mercaptoethanol. The heat-treated reaction solution was electrophoresed by 7.5% SDS-PAGE and stained with SYPRO Orange (manufactured by Sigma-Aldrich). The staining was performed according to the manual of Sigma-Aldrich and detected using STORM840 manufactured by GE Healthcare. […] The amount of uncleaved substrate in each reaction solution was quantified from the band intensity and the standard curve. […] The inhibition rate of the test substance was calculated using the following equation.
The binding activity and enzyme inhibitory activity of aptamers having nucleotide sequences shown in SEQ ID NOs: 16-25 to ADAMTS5 were measured. The binding activity was evaluated by the surface plasmon resonance method. […]

ADAMTS5 [2] = biological target: T1, ADAMTS5; experiment: inhibition; SDS-PAGE aggrecan cleavage, 5 nM enzyme; details: tags: R&D Systems
Description: as §1, with “The reaction solution was incubated at 37° C. for 2 hr, 2 μL of solution D was added, and the mixture was heated at 95° C. for 2 min to stop the enzyme reaction of ADAMTS5. Solution D contains 0.25 M tris (pH 6.8), 10% SDS, 50% glycerol, 0.25% bromo phenolblue, and 20% 2-mercaptoethanol. The heat-treated reaction solution was electrophoresed by 7.5% SDS-PAGE and stained with SYPRO Orange (manufactured by Sigma-Aldrich).” left out, “equation. […]” for “equation.”

ADAMTS5 [3] = biological target: T1, ADAMTS5; experiment: inhibition; SDS-PAGE aggrecan cleavage; 81% inhibition in Table 9 method 1; details: tags: R&D Systems
Description: (§2) As a substrate of ADAMTS5, the G1-IGD-G2 domain of aggrecan (manufactured by R&D systems) was used. ADAMTS5 specifically cleaves in between the 392nd glutamic acid and the 393rd alanine in the G1-IGD-G2 domain and produces two fragments. These fragments have faster electrophoretic mobility than uncleaved G1-IGD-G2. Thus, the enzyme activity of ADAMTS5 can be measured by quantifying the band intensity of G1-IGD-G2 by SDS-PAGE electrophoresis. The assay was performed in a solution A buffer with a reaction mixture volume of 10 μL. First, a mixture (10 μL) of a nucleic acid and ADAMTS5 was prepared and incubated at 25° C. for 15 min. […] The staining was performed according to the manual of Sigma-Aldrich and detected using STORM840 manufactured by GE Healthcare. […] The amount of uncleaved substrate in each reaction solution was quantified from the band intensity and the standard curve. […] The inhibition rate of the test substance was calculated using the following equation.
The aptamer having the sequence shown in SEQ ID NO: 26 was prepared by transcription by T7RNA polymerase, and the aptamers having the sequences shown in SEQ ID NOs: 27-29 were prepared by chemical synthesis. Whether these aptamers inhibit the enzyme activity of ADAMTS5 was evaluated by a method similar to that in Example 1. In the Table, “n.d.” means not determined.

ADAMTS5 [4] = biological target: T1, ADAMTS5; experiment: inhibition; 10 nM; details: tags: R&D Systems
Description: as §1
The nucleic acids of SEQ ID NOs: 10-12 were all produced by chemical synthesis. Whether aptamers having the nucleotide sequences shown by these nucleic acids inhibit the enzyme activity of ADAMTS5 was determined by a method similar to that in Example 1.

ADAMTS5 [5] = biological target: T1, ADAMTS5; experiment: inhibition; 30 nM; details: tags: R&D Systems
Description: (§3) Whether an aptamer having the nucleotide sequence shown in SEQ ID NO: 1 inhibits the enzyme activity of ADAMTS5 was evaluated by the following method. As a substrate of ADAMTS5, the G1-IGD-G2 domain of aggrecan (manufactured by R&D systems) was used. ADAMTS5 specifically cleaves in between the 392nd glutamic acid and the 393rd alanine in the G1-IGD-G2 domain and produces two fragments. These fragments have faster electrophoretic mobility than uncleaved G1-IGD-G2. Thus, the enzyme activity of ADAMTS5 can be measured by quantifying the band intensity of G1-IGD-G2 by SDS-PAGE electrophoresis. The assay was performed in a solution A buffer with a reaction mixture volume of 10 μL. First, a mixture (10 μL) of a nucleic acid and ADAMTS5 was prepared and incubated at 25° C. for 15 min. To a substrate solution (5 μL) diluted with solution A was added a mixture (5 μL) of the nucleic acid and ADAMTS5 to start the enzyme reaction. The final concentration of ADAMTS5 in the reaction solution was 5 nM, and the final substrate concentration was 50 μg/mL. The reaction solution was incubated at 37° C. for 2 hr, 2 μL of solution D was added, and the mixture was heated at 95° C. for 2 min to stop the enzyme reaction of ADAMTS5. Solution D contains 0.25 M tris (pH 6.8), 10% SDS, 50% glycerol, 0.25% bromo phenolblue, and 20% 2-mercaptoethanol. The heat-treated reaction solution was electrophoresed by 7.5% SDS-PAGE and stained with SYPRO Orange (manufactured by Sigma-Aldrich). The staining was performed according to the manual of Sigma-Aldrich and detected using STORM840 manufactured by GE Healthcare. […] The amount of uncleaved substrate in each reaction solution was quantified from the band intensity and the standard curve. The substrate cleavage efficiency of ADAMTS5 under these reaction conditions was 80-100%. The inhibition rate of the test substance was calculated using the following equation.
Whether these aptamers inhibit the enzyme activity of ADAMTS5 was tested by a method similar to that in Example 1. The final concentration of the nucleic acid was fixed to 30 nM in the test.

ADAMTS5 [6] = biological target: T1, ADAMTS5; experiment: inhibition; 5 nM ADAMTS5, aggrecan G1-IGD-G2 cleavage, 145 mM NaCl, Ca, Mg, 37 C; details: tags: R&D Systems; stem-internal loop-stem-loop (MFOLD)
Description: as §2, with “Whether an aptamer having the nucleotide sequence shown in SEQ ID NO: 1 inhibits the enzyme activity of ADAMTS5 was evaluated by the following method. As” for “As”, “min. To a substrate solution (5 μL) diluted with solution A was added a mixture (5 μL) of the nucleic acid and ADAMTS5 to start the enzyme reaction.” for “min.”
The concentration of an inhibitor necessary for inhibiting 50% of the enzyme activity (IC₅₀) was determined. […]

ADAMTS5 [7] = biological target: T1, ADAMTS5; experiment: inhibition; 30 nM; details: tags: R&D Systems; remark: listed apart in the source
Description: as §3
The nucleic acids shown in SEQ ID NOs: 3(1)-3(16) were all produced by chemical synthesis. Whether these nucleic acids inhibit the enzyme activity of ADAMTS5 was determined by a method similar to that in Example 1.

ADAMTS5 [8] = biological target: T1, ADAMTS5; experiment: SPR; RU ratio <10%, same level as 40N; 300 mM NaCl, Ca, Mg; details: tags: R&D Systems
Description: The binding activity of aptamers having the nucleotide sequences shown in SEQ ID NOs: 1 and 2 to ADAMTS5 was evaluated by the surface plasmon resonance method. Biacore T100 manufactured by GE Healthcare was used for the measurement. The SA chip was used as the sensor chip, which had streptavidin immobilized thereon. About 800 RU of a 16-nucleotide Poly dT with biotin at the 5′-terminal was bound on the chip. […] ADAMTS5 for analyte was prepared at 0.1 μM, and injected at a flow rate so of 30 μL/min for 60 sec. As the running buffer, solution C was used. The solution C is a mixed solution of 300 mM sodium chloride, 5.4 mM potassium chloride, 1.8 mM calcium chloride, 0.8 mM magnesium chloride, 20 mM tris (pH 7.6), and 0.05% Tween20.
SEQ ID NO: 2 has a sequence with one base deletion from the continuous 4 G bases in the consensus sequence, and it was shown from the measurement results of the binding activity that the continuous 4 G bases in the consensus sequence are important for the activity of aptamers. Sensorgram showing the binding of an aptamer having the nucleotide sequence shown in SEQ ID NO: 1 to ADAMTS5 is presented in FIG. 2. […]

B1: SEQ ID NO: 24 (ssRNA)
RNA: GGGACAUGCGUAACUUGAUAGGGGCCUCCACAGCCGGUAGGCUUGGACUCAAACCAUCAAGUCCAGAUCGAGCA
modifications: 2'-F at all pyrimidines
activity (ADAMTS5 [1]): 20.2 % inhibition

B2: SEQ ID NO: 27 (ssRNA)
RNA: UAUAGGGGCCUCCACAGCGUAAGCUUGGACUUAAACCAUA
modifications: 2'-OMe at 1-3,5,6,16-19,23-27,34-40; 2'-F other pyrimidines
IC50 (ADAMTS5 [2]): 5.9 nM

B3: SEQ ID NO: 28 (ssRNA)
RNA: CGUAGGGGCCUCCACAGCGUAAGCUUGGACUUAAACCACG
modifications: 2'-OMe at 1-3,5,6,16-19,23-27,34-40; 2'-F other pyrimidines
IC50 (ADAMTS5 [3]): 3.4 nM

B4: SEQ ID NO: 12 (ssRNA)
RNA: UUGGGGCCUCCACAGCGCUCGCUUGGACUAAACCAA
modifications: 2'-OMe at 1-4,14-23,25,31-36; 2'-F other pyrimidines
activity (ADAMTS5 [4]): 71.1 % inhibition

B5: SEQ ID NO: 9 (ssRNA)
RNA: GGAUUGGGGCCUCCACAGCGUCGCUUGGACUAAACCAAUCC
modifications: 2'-F pyrimidines
activity (ADAMTS5 [5]): 5.9 % inhibition

B6: SEQ ID NO: 1 (ssRNA)
RNA: GGGUACGACCGUCGUACGAUUGGGGCCUCCACAGCUGCUCAGCUUGGACUAAACCAAUAAGAGACUAACGCCUAGCGUAC
modifications: 2'-F pyrimidines, 2'-OH purines; 3' A16 tail for SPR
IC50 (ADAMTS5 [6]): 16.8 nM

B7: 3(1) (ssRNA)
RNA: GGAUUGGGGCCUCCACAGCUGCUCAGCUUGGACUAAACCAAUCC
modifications: 2'-OMe at 1-3,42-44; 2'-F other pyrimidines
activity (ADAMTS5 [7]): 49.8 % inhibition

B8: 3(3) (ssRNA)
RNA: GGAUUGGGGCCUCCACAGCUGCUCAGCUUGGACUAAACCAAUCC
modifications: 2'-OMe at 18-20,25-27; 2'-F other pyrimidines
activity (ADAMTS5 [7]): 48.6 % inhibition

B9: 3(4) (ssRNA)
RNA: GGAUUGGGGCCUCCACAGCUGCUCAGCUUGGACUAAACCAAUCC
modifications: 2'-OMe at A36; 2'-F pyrimidines
activity (ADAMTS5 [7]): 53.1 % inhibition

B10: 3(2) (ssRNA)
RNA: GGAUUGGGGCCUCCACAGCUGCUCAGCUUGGACUAAACCAAUCC
modifications: 2'-OMe at 4-6,39-41; 2'-F other pyrimidines
activity (ADAMTS5 [7]): 53.6 % inhibition

B11: SEQ ID NO: 22 (ssRNA)
RNA: GGGACAUGCGUAACUGCAUAGGGGCCUCCACAGCUAUUCAGCUUGGACACAAACCAUGCAGUCCAGAUCGAGCA
modifications: 2'-F at all pyrimidines
activity (ADAMTS5 [1]): 14.8 % inhibition

B12: SEQ ID NO: 23 (ssRNA)
RNA: GGGACAUGCGUAACUGUAUAGGGGCCUCCACAGCUGAAAAGCUUGGACUCAAACCAUACAGUCCAGAUCGAGCA
modifications: 2'-F at all pyrimidines
activity (ADAMTS5 [1]): 14.5 % inhibition

B13: SEQ ID NO: 6 (ssRNA)
RNA: GGCUUGGGGCCUCCACAGCUGUCAGCUUGGACUAAACCAAGCC
modifications: 2'-F pyrimidines
activity (ADAMTS5 [5]): 33.7 % inhibition

B14: SEQ ID NO: 5 (ssRNA)
RNA: GGCUUGGGGCCUCCACAGCGCUCGCUUGGACUAAACCAAGCC
modifications: 2'-F pyrimidines
activity (ADAMTS5 [5]): 27 % inhibition

B15: SEQ ID NO: 2 (ssRNA)
RNA: GGGUACGACCGUCGUACGAUUGGGCCUCCACAGCUGCUCAGCUUGGACUAAACCAAUAAGAGACUAACGCCUAGCGUAC
modifications: 2'-F pyrimidines; 3' A16 tail for SPR
binding result (ADAMTS5 [8]): no binding

B16: SEQ ID NO: 11 (ssRNA)
RNA: AUUGGGGCCUCCACAGCGCUCGCUUGGACUAAACCAAU
modifications: 2'-OMe at 1-5,15-24,26,32-38; 2'-F other pyrimidines
activity (ADAMTS5 [4]): 59.8 % inhibition

B17: SEQ ID NO: 10 (ssRNA)
RNA: AUUGGGGCCUCCACAGCUGCUCAGCUUGGACUAAACCAAU
modifications: 2'-OMe at 1-5,15-26,28,34-40; 2'-F other pyrimidines
activity (ADAMTS5 [4]): 65 % inhibition
